# Data taken from publication PMC8013792, “Bacterial protein domains with a novel Ig‐like fold target human CEACAM receptors” (The EMBO Journal, 2021).
# Where a chain is given by its changes, count along the chain named. In names and notes the source's numbering stands.
# T1: tag-less unglycosylated CEACAM1 N-terminal domain (rCEACAM1-N, pET21d) (human, UniProt P13688 34-141)
# T1 construct: N-terminal IgV-like domain of human CEACAM1; also called rCC1-N; CC1-N; source: E. coli, pET21d, purified as in Bonsor et al, 2015a
# T1 sequence: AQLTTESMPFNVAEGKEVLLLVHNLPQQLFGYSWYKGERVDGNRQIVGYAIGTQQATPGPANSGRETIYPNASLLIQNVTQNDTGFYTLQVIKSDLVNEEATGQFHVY
# B1: tag-less CEACAM1 N-terminal domain, unglycosylated (domain or fragment, human)
# chain: T1 sequence
# notes: CEACAM1, human, N-terminal IgV-like domain, tag-less; also called rCEACAM1-N; CC1-N; source: E. coli (pET21d), purified
# B2: IgI3 domain of R28 protein, recombinant, as used in ITC (domain or fragment)
# chain: KYSPEAKHRTVEQHAELDAKDSIANTDELPSNSTYNWKNGHKPDTSTSGEKDGIVEVHYPDGTVDDVNVKVTVTSKKTDNTAPTLTVTPEQQTVKVDEDITFTVTVEDENEVELGLDDLKAKYENDIIGARVKIKYLTKEPNKKVMEVTIMKATLADKGAITFTAKDKAGNQAEPKTVTINVLPLK
# modifications: Construct limits not printed. 233-418 is the unannotated region between the AlphaC C-terminal domain (ends 232) and the first annotated Rib repeat (starts 419); it should enclose the IgI3 domain …
# B3: β-IgI3 L45A (rβIgI3ΔL45A-His) (domain or fragment)
# chain: ANENNQQKIELTVSPENITVYEGEDVKFTVTAKSDSKTTLDFSDALTKYNPSVSDRISTNYKTNTDNHKIAEITIKNLKLNESQTVTLKAKDDSGNVVEKTFTITVQKKEEKQ
# notes: the substitution is still to be applied; its number counts on the domain's own 1-113; source: E. coli RG (Rosetta Gami), purified (Nickel column)
# B4: β-IgI3 S52A (rβIgI3ΔS52A-His) (domain or fragment)
# chain: B3 chain with A45L, S52A
# notes: as for B3
# How the values were obtained:
# [1] = molecular target: IgSF (IgI3) domain of β protein, recombinant, as used in ITC (Streptococcus agalactiae (GBS)); experiment: ITC; iTC200, 25°C, 30 mM Tris-HCl, 150 mM NaCl, pH 7.5; typically 500 µM unglycosylated CEACAM-N domain in the syringe, 50 µM IgI3 domain; duplicates
# [2] = molecular target: β-IgI3 D55A, as used in ITC (Streptococcus agalactiae (GBS)); experiment: as above
# [3] = molecular target: β-IgI3 F42A, as used in ITC (Streptococcus agalactiae (GBS)); experiment: as above
# [4] = molecular target: β-IgI3 V53A, as used in ITC (Streptococcus agalactiae (GBS)); experiment: as above
# [5] = molecular target: B2; experiment: as above; conditions: both partners purified
# [6] = molecular target: B1; experiment: as above; conditions: both partners purified
# [7] = molecular target: T1, tag-less unglycosylated CEACAM1 …; experiment: ITC; iTC200, 25 °C, 16 injections of 2.42 µL; typically 500 µM unglycosylated CEACAM-N in the syringe and 50 µM β-IgSF/β-IgI3; 30 mM Tris-HCl, 150 mM NaCl, pH 7.5; duplicates; conditions: both partners purified
molecule,measurement,setting,value
"CEACAM5 N-terminal domain, unglycosylated (domain or fragment)",Kd,[1],152 nM
"tag-less CEACAM1-N V96A, unglycosylated (from UniProt P13688 34-141) (domain or fragment)",Kd,[1],370 nM
"tag-less CEACAM1-N N97A, unglycosylated (from UniProt P13688 34-141) (domain or fragment)",Kd,[1],490 nM
"tag-less CEACAM1-N Q44A, unglycosylated (from UniProt P13688 34-141) (domain or fragment)",Kd,[1],996 nM
"tag-less CEACAM1-N L95A, unglycosylated (from UniProt P13688 34-141) (domain or fragment)",Kd,[1],1350 nM
"tag-less CEACAM1 N-terminal domain, unglycosylated (from UniProt P13688 34-141) (domain or fragment)",Kd,[1],96 nM
same,Kd,[2],690 nM
same,Kd,[3],16 nM
same,Kd,[4],562 nM
B1,dH,[5],-4.8 ± 0.3 kcal/mol
B2,Kd,[6],1050 ± 18 nM
B3,Kd,[7],234 nM
B4,Kd,[7],85 nM
